Target: T1, sIL-6R (soluble IL-6 receptor; SBH Sciences) (human, UniProt P08887 20-365)
T1 construct: also called human IL-6R
T1 sequence: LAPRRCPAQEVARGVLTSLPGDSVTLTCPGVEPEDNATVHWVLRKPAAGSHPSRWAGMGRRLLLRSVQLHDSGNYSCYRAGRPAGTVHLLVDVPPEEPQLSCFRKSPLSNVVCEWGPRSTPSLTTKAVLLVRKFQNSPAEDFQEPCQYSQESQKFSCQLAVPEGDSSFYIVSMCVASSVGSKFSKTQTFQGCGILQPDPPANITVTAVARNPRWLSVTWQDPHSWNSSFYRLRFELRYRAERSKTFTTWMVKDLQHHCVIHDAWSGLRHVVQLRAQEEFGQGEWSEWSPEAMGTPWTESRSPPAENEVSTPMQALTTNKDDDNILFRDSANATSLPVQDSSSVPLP
Assay: SPR (BIAcore 3000), antibody on chip, sIL-6R analyte, 25 C
Experimental: All SPR measurements were performed on a BIAcore 3000 instrument (GE Biosciences, Piscataway, N.J.). BIAcore Software-BIAcore 3000 Control Software V3.2 was used for the operation and control of the BIAcore 3000 instrument. BiaEvaluation Software V4.1 was used for the analysis of SPR data from the BIAcore 3000 instrument and data was plotted using Graph Pad Prism Software Version 5. […] The indicated antibodies were used as the ligand for the construction of the reference channel of the chip. […] Each sample was injected for 3 min at a flow rate of 30 μL/min to allow for binding to chip-bound antibody. Next, binding buffer without analyte was sent over the chip at the same flow rate to allow for dissociation of bound analyte. After 500s, remaining bound analyte was removed by injecting regeneration solution (1M Formic acid). Data was analyzed by using the Kinetics Wizard and the manual fitting programs that are both included with the BiaEvaluation Software V4.1.

B1: 52# (antibody, human IgG1, kappa, V domains shown)
VH: QVQLQESGPGLVRPSQTLSLTCTVSGYSITSDHAWSWVRQPPGRGLEWIGYISYSGITTYNPSLKSRVTMLRDTSKNQFSLRLSSVTAADTAVYYCARSLARTTAIDFWGQGSLVTVSS
VL: DIQMTQSPSSLSASVGDRVTITCRASQDISSYLNWYQQKPGKAPKLLIYYTSRLHSGVPSRFSGSGSGTDFTFTISSLQPEDIATYYCQQGNTLPYTFGQGTKVEIKR
notes: also called Sample # 52
- Kd: 1.86 nM
- Relative Affinity: 1.7 fold vs 25 (Tocilizumab)
- koff: 0.000199 s⁻¹
- kon: 107000 M⁻¹ s⁻¹

B2: 218# (antibody, human IgG1, kappa, V domains shown)
VH: QVQLQESGPGLVRPSQTLSLTCTVSGYSITSDHAWSWVRQPPGRGLEWIGYISYSGMITYNPSLKSRVTMLRDTSKNQFSLRLSSVTAADTAVYYCARCLARMTAIDFWGQGSLVTVSS
VL: DIQMTQSPSSLSASVGDRVTITCRASQDISSYLNWYQQKPGKAPKLLIYYTSRLHSGVPSRFSGSGSGTDFTFTISSLQPEDIATYYCQQGNTLPYTFGQGTKVEIKR
- Kd: 0.621 nM
- Relative Affinity: 5.1 fold vs 25 (Tocilizumab)
- koff: 6.63e-05 s⁻¹
- kon: 107000 M⁻¹ s⁻¹

B3: 226# (antibody, human IgG1, kappa, V domains shown)
VH: QVQLQESGPGLVRPSQTLSLTCTVSGYSITSDHAWSWVRQPPGRGLEWIGYISYSGMITYNPSLKSRVTMLRDTSKNQFSLRLSSVTAADTAVYYCARCLARATAMDYWGQGSLVTVSS
VL: DIQMTQSPSSLSASVGDRVTITCRASQDISSYLNWYQQKPGKAPKLLIYYTSRLHSGVPSRFSGSGSGTDFTFTISSLQPEDIATYYCQQGNTLPYTFGQGTKVEIKR
- Kd: 0.102 nM
- Relative Affinity: 31 fold vs 25 (Tocilizumab)
- koff: 1.6e-05 s⁻¹
- kon: 156000 M⁻¹ s⁻¹

B4: 219# (antibody, human IgG1, kappa, V domains shown)
VH: QVQLQESGPGLVRPSQTLSLTCTVSGYSITSDHAWSWVRQPPGRGLEWIGYISYSGITTYNPSLKSRVTMLRDTSKNQFSLRLSSVTAADTAVYYCARCLARMTAIDFWGQGSLVTVSS
VL: DIQMTQSPSSLSASVGDRVTITCRASQDISSYLNWYQQKPGKAPKLLIYYTSRLHSGVPSRFSGSGSGTDFTFTISSLQPEDIATYYCGQGNRLPYTFGQGTKVEIKR
- Kd: 0.491 nM
- Relative Affinity: 6.4 fold vs 25 (Tocilizumab)
- koff: 5.96e-05 s⁻¹
- kon: 121000 M⁻¹ s⁻¹

B5: 220# (antibody, human IgG1, kappa, V domains shown)
VH: QVQLQESGPGLVRPSQTLSLTCTVSGYSITSDHAWSWVRQPPGRGLEWIGYISYSGMITYNPSLKSRVTMLRDTSKNQFSLRLSSVTAADTAVYYCARSLARMTAMDYWGQGSLVTVSS
VL: DIQMTQSPSSLSASVGDRVTITCRASQDISSYLNWYQQKPGKAPKLLIYYTSRLHSGVPSRFSGSGSGTDFTFTISSLQPEDIATYYCGQGNRLPYTFGQGTKVEIKR
notes: also called Sample # 220
- Kd: 0.483 nM
- Relative Affinity: 6.5 fold vs 25 (Tocilizumab)
- koff: 6.34e-05 s⁻¹
- kon: 131000 M⁻¹ s⁻¹

B6: 216# (antibody, human IgG1, kappa, V domains shown)
VH: QVQLQESGPGLVRPSQTLSLTCTVSGYSITSDHAWSWVRQPPGRGLEWIGYISYSGMITYNPSLKSRVTMLRDTSKNQFSLRLSSVTAADTAVYYCARSLARTTAIDFWGQGSLVTVSS
VL: DIQMTQSPSSLSASVGDRVTITCRASQDISSYLNWYQQKPGKAPKLLIYYTSRLHSGVPSRFSGSGSGTDFTFTISSLQPEDIATYYCQQGNTLPYTFGQGTKVEIKR
notes: also called Sample # 216
- Kd: 1.83 nM
- Relative Affinity: 1.7 fold vs 25 (Tocilizumab)
- koff: 0.000266 s⁻¹
- kon: 145000 M⁻¹ s⁻¹

B7: 225# (antibody, human IgG1, kappa, V domains shown)
VH: QVQLQESGPGLVRPSQTLSLTCTVSGYSITSDHAWSWVRQPPGRGLEWIGYISYSGMITYNPSLKSRVTMLRDTSKNQFSLRLSSVTAADTAVYYCARCLARTTAMDYWGQGSLVTVSS
VL: DIQMTQSPSSLSASVGDRVTITCRASQDISSYLNWYQQKPGKAPKLLIYYTSRLHSGVPSRFSGSGSGTDFTFTISSLQPEDIATYYCQQGNTLPYTFGQGTKVEIKR
- Kd: 0.645 nM
- Relative Affinity: 4.9 fold vs 25 (Tocilizumab)
- koff: 0.000105 s⁻¹
- kon: 163000 M⁻¹ s⁻¹

B8: 55# (antibody, human IgG1, kappa, V domains shown)
VH: QVQLQESGPGLVRPSQTLSLTCTVSGYSITSDHAWSWVRQPPGRGLEWIGFISYSGMITYNPSLKSRVTMLRDTSKNQFSLRLSSVTAADTAVYYCARCLARTTAMDYWGQGSLVTVSS
VL: DIQMTQSPSSLSASVGDRVTITCRASQDISSYLNWYQQKPGKAPKLLIYYTSRLHSGVPSRFSGSGSGTDFTFTISSLQPEDIATYYCQQGNTLPYTFGQGTKVEIKR
notes: also called Sample # 55
- Kd: 0.387 nM
- Relative Affinity: 8.2 fold vs 25 (Tocilizumab)
- koff: 7.24e-05 s⁻¹
- kon: 187000 M⁻¹ s⁻¹

B9: 222# (antibody, human IgG1, kappa, V domains shown)
VH: QVQLQESGPGLVRPSQTLSLTCTVSGYSITSDHAWSWVRQPPGRGLEWIGYISYSGMITYNPSLKSRVTMLRDTSKNQFSLRLSSVTAADTAVYYCARCLARMTAMDYWGQGSLVTVSS
VL: DIQMTQSPSSLSASVGDRVTITCRASQDISSYLNWYQQKPGKAPKLLIYYTSRLHSGVPSRFSGSGSGTDFTFTISSLQPEDIATYYCGQGNRLPYTFGQGTKVEIKR
notes: also called Sample # 222
- Kd: 0.286 nM
- Relative Affinity: 11 fold vs 25 (Tocilizumab)
- koff: 3.66e-05 s⁻¹
- kon: 128000 M⁻¹ s⁻¹

B10: 214# (antibody, human IgG1, kappa, V domains shown)
VH: QVQLQESGPGLVRPSQTLSLTCTVSGYSITSDHAWSWVRQPPGRGLEWIGYISYSGITTYNPSLKSRVTMLRDTSKNQFSLRLSSVTAADTAVYYCARCLARMTAIDFWGQGSLVTVSS
VL: DIQMTQSPSSLSASVGDRVTITCRASQDISSYLNWYQQKPGKAPKLLIYYTSRLHSGVPSRFSGSGSGTDFTFTISSLQPEDIATYYCQQGNTLPYTFGQGTKVEIKR
- Kd: 0.369 nM
- Relative Affinity: 8.7 fold vs 25 (Tocilizumab)
- koff: 4.69e-05 s⁻¹
- kon: 127000 M⁻¹ s⁻¹

B11: 221# (antibody, human IgG1, kappa, V domains shown)
VH: QVQLQESGPGLVRPSQTLSLTCTVSGYSITSDHAWSWVRQPPGRGLEWIGYISYSGMITYNPSLKSRVTMLRDTSKNQFSLRLSSVTAADTAVYYCARSLARTTAIDFWGQGSLVTVSS
VL: DIQMTQSPSSLSASVGDRVTITCRASQDISSYLNWYQQKPGKAPKLLIYYTSRLHSGVPSRFSGSGSGTDFTFTISSLQPEDIATYYCGQGNRLPYTFGQGTKVEIKR
- Kd: 0.663 nM
- Relative Affinity: 4.8 fold vs 25 (Tocilizumab)
- koff: 9.01e-05 s⁻¹
- kon: 136000 M⁻¹ s⁻¹

B12: 224# (antibody, human IgG1, kappa, V domains shown)
VH: QVQLQESGPGLVRPSQTLSLTCTVSGYSITSDHAWSWVRQPPGRGLEWIGYISYSGMTTYNPSLKSRVTMLRDTSKNQFSLRLSSVTAADTAVYYCARCLARTTAMDYWGQGSLVTVSS
VL: DIQMTQSPSSLSASVGDRVTITCRASQDISSYLNWYQQKPGKAPKLLIYYTSRLHSGVPSRFSGSGSGTDFTFTISSLQPEDIATYYCQQGNTLPYTFGQGTKVEIKR
- Kd: 0.5 nM
- Relative Affinity: 6.3 fold vs 25 (Tocilizumab)
- koff: 7.99e-05 s⁻¹
- kon: 160000 M⁻¹ s⁻¹

B13: 217# (antibody, human IgG1, kappa, V domains shown)
VH: QVQLQESGPGLVRPSQTLSLTCTVSGYSITSDHAWSWVRQPPGRGLEWIGYISYSGMITYNPSLKSRVTMLRDTSKNQFSLRLSSVTAADTAVYYCARCLARMTAMDYWGQGSLVTVSS
VL: DIQMTQSPSSLSASVGDRVTITCRASQDISSYLNWYQQKPGKAPKLLIYYTSRLHSGVPSRFSGSGSGTDFTFTISSLQPEDIATYYCQQGNTLPYTFGQGTKVEIKR
notes: also called Sample # 217
- Kd: 0.581 nM
- Relative Affinity: 5.4 fold vs 25 (Tocilizumab)
- koff: 0.000109 s⁻¹
- kon: 188000 M⁻¹ s⁻¹

B14: 59# (antibody, human IgG1, kappa, V domains shown)
VH: QVQLQESGPGLVRPSQTLSLTCTVSGYSITSDHAWSWVRQPPGRGLEWIGFISYSGMTTYNPSLKSRVTMLRDTSKNQFSLRLSSVTAADTAVYYCARCLARTTAMDYWGQGSLVTVSS
VL: DIQMTQSPSSLSASVGDRVTITCRASQDISSYLNWYQQKPGKAPKLLIYYTSRLHSGVPSRFSGSGSGTDFTFTISSLQPEDIATYYCQQGNTLPYTFGQGTKVEIKR
notes: also called Sample # 59
- Kd: 0.283 nM
- Relative Affinity: 11.2 fold vs 25 (Tocilizumab)
- koff: 4.86e-05 s⁻¹
- kon: 172000 M⁻¹ s⁻¹

B15: 69# (antibody, human IgG1, kappa, V domains shown)
VH: QVQLQESGPGLVRPSQTLSLTCTVSGYSITSDHAWSWVRQPPGRGLEWIGFISYSGMTTYNPSLKSRVTMLRDTSKNQFSLRLSSVTAADTAVYYCARCLARTTAIDFWGQGSLVTVSS
VL: DIQMTQSPSSLSASVGDRVTITCRASQDISSYLNWYQQKPGKAPKLLIYYTSRLHSGVPSRFSGSGSGTDFTFTISSLQPEDIATYYCQQGNTLPYTFGQGTKVEIKR
notes: also called Sample # 69
- Kd: 0.286 nM
- Relative Affinity: 11 fold vs 25 (Tocilizumab)
- koff: 4.14e-05 s⁻¹
- kon: 145000 M⁻¹ s⁻¹

B16: 223# (antibody, human IgG1, kappa, V domains shown)
VH: QVQLQESGPGLVRPSQTLSLTCTVSGYSITSDHAWSWVRQPPGRGLEWIGYISYSGMITYNPSLKSRVTMLRDTSKNQFSLRLSSVTAADTAVYYCARCLARMTAIDFWGQGSLVTVSS
VL: DIQMTQSPSSLSASVGDRVTITCRASQDISSYLNWYQQKPGKAPKLLIYYTSRLHSGVPSRFSGSGSGTDFTFTISSLQPEDIATYYCGQGNRLPYTFGQGTKVEIKR
notes: also called Sample # 223
- Kd: 0.368 nM
- Relative Affinity: 8.6 fold vs 25 (Tocilizumab)
- koff: 4.91e-05 s⁻¹
- kon: 133000 M⁻¹ s⁻¹

B17: 215# (antibody, human IgG1, kappa, V domains shown)
VH: QVQLQESGPGLVRPSQTLSLTCTVSGYSITSDHAWSWVRQPPGRGLEWIGYISYSGMITYNPSLKSRVTMLRDTSKNQFSLRLSSVTAADTAVYYCARSLARMTAMDYWGQGSLVTVSS
VL: DIQMTQSPSSLSASVGDRVTITCRASQDISSYLNWYQQKPGKAPKLLIYYTSRLHSGVPSRFSGSGSGTDFTFTISSLQPEDIATYYCQQGNTLPYTFGQGTKVEIKR
- Kd: 1.03 nM
- Relative Affinity: 3.1 fold vs 25 (Tocilizumab)
- koff: 0.000161 s⁻¹
- kon: 157000 M⁻¹ s⁻¹

Source: patent US20190315854A1 (BEIJING VDJBIO, published 2019)
